Measurements as given in patent US20250346685A1 (published 2025).

B1: GPC3 × CD3 κλ002 (bispecific antibody, human IgG4 S228P, kappa, lambda)
light 1: DVVMTQSPLSLPVTPGEPASISCRSSQSIVHSNGNTYLEWYLKKPGQSPQLLIYKVSNRFSGVPDRFSGSGSGTDFTLKISRVEAEDVGVYFCLQVTHVPLTFGQGTKLEIKRTVAAPSVFIFPPSDEQLKSGTASVVCLLNNFYPREAKVQWKVDNALQSGNSQESVTEQDSKDSTYSLSSTLTLSKADYEKHKVYACEVTHQGLSSPVTKSFNRGEC
heavy 1: QVQLVQSGAEVKKPGSSVKVSCKASGYTFADYEIHWVREAPGQGLEWMGAIHPGSGGTAYAQKFQGRVTLTADESSTTAYMELSSLRSEDTAVYYCTRYYSFAYWGQGTLVTVSSASTKGPSVFPLAPCSRSTSESTAALGCLVKDYFPEPVTVSWNSGALTSGVHTFPAVLQSSGLYSLSSVVTVPSSSLGTKTYTCNVDHKPSNTKVDKRVESKYGPPCPPCPAPEFEGGPSVFLFPPKPKDTLMISRTPEVTCVVVDVSQEDPEVQFNWYVDGVEVHNAKTKPREEQFNSTYRVVSVLTVLHQDWLNGKEYKCKVSNKGLASSIEKTISKAKGQPREPQVCTLPPSQEEMTKNQVSLSCAVKGFYPSDIAVEWESNGQPENNYKTTPPVLDSDGSFFLVSKLTVDKSRWQEGNVFSCSVMHEALHNHYTQKSLSLSLGK
light 2: QAVVTQEPSLTVSPGGTVTLTCRSSTGAVTTSNYANWVQEKPGQAPRGLIGGTNKRAPWTPARFSGSLLGGKAALTITGAQAEDEAEYYCVLWYSNLWVFGGGTKLTVLGQPKAAPSVTLFPPSSEELQANKATLVCLISDFYPGAVTVAWKADSSPVKAGVETTTPSKQSNNKYAASSYLSLTPEQWKSHRSYSCQVTHEGSTVEKTVAPTECS
heavy 2: EVQLVESGGGLVQPGGSLRLSCAASGFTFNTYAMNWVRKAPGKGLEWVGRIRSKYNNYATYYADSVKDRFTISRDDSKNSLYLQMNSLKTEDTAVYYCVRHGNFGNSYVSWFAYWGQGTLVTVSSASTKGPSVFPLAPCSRSTSESTAALGCLVKDYFPEPVTVSWNSGALTSGVHTFPAVLQSSGLYSLSSVVTVPSSSLGTKTYTCNVDHKPSNTKVDKRVESKYGPPCPPCPAPEFEGGPSVFLFPPKPKDTLMISRTPEVTCVVVDVSQEDPEVQFNWYVDGVEVHNAKTKPREEQFNSTYRVVSVLTVLHQDWLNGKEYKCKVSNKGLASSIEKTISKAKGQPREPQVYTLPPCQEEMTKNQVSLWCLVKGFYPSDIAVEWESNGQPENNYKTTPPVLDSDGSFFLYSKLTVDKSRWQEGNVFSCSVMHEALHNHYTQKSLSLSLGK
notes: also called GPC3×CD3 κλ bispecific antibody
B2: GPC3 × CD3 κλ003 (bispecific antibody, human IgG4 S228P, kappa, lambda)
light 1: DVVMTQSPLSLPVTPGEPASISCRSSQSIVHSNGNTYLEWYLKKPGQSPQLLIYKVSNRFSGVPDRFSGSGSGTDFTLKISRVEAEDVGVYFCLQVTHVPLTFGQGTKLEIKRTVAAPSVFIFPPSDKKLKSGTASVVCLLNNFYPREAKVQWKVDNALQSGNSQESVTEQDSKDSTYSLSSTLTLSKADYEKHKVYACEVTHQGLSSPVTKSFNRGEC
heavy 1: QVQLVQSGAEVKKPGSSVKVSCKASGYTFADYEIHWVREAPGQGLEWMGAIHPGSGGTAYAQKFQGRVTLTADESSTTAYMELSSLRSEDTAVYYCTRYYSFAYWGQGTLVTVSSASTKGPSVFPLAPCSRSTSESTAALGCLVEDYFPEPVTVSWNSGALTSGVHTFPAVLQSSGLYSLSSVVTVPSSSLGTKTYTCNVDHKPSNTKVDERVESKYGPPCPPCPAPEFEGGPSVFLFPPKPKDTLMISRTPEVTCVVVDVSQEDPEVQFNWYVDGVEVHNAKTKPREEQFNSTYRVVSVLTVLHQDWLNGKEYKCKVSNKGLASSIEKTISKAKGQPREPQVCTLPPSQEEMTKNQVSLSCAVKGFYPSDIAVEWESNGQPENNYKTTPPVLDSDGSFFLVSKLTVDKSRWQEGNVFSCSVMHEALHNHYTQKSLSLSLGK
light 2: QAVVTQEPSLTVSPGGTVTLTCRSSTGAVTTSNYANWVQEKPGQAPRGLIGGTNKRAPWTPARFSGSLLGGKAALTITGAQAEDEAEYYCVLWYSNLWVFGGGTKLTVLGQPKAAPSVTLFPPSSEELQANKATLVCLISDFYPGAVTVAWKADSSPVKAGVETTTPSKQSNNKYAASSYLSLTPEQWKSHRSYSCQVTHEGSTVEKTVAPTECS
heavy 2: EVQLVESGGGLVQPGGSLRLSCAASGFTFNTYAMNWVRKAPGKGLEWVGRIRSKYNNYATYYADSVKDRFTISRDDSKNSLYLQMNSLKTEDTAVYYCVRHGNFGNSYVSWFAYWGQGTLVTVSSASTKGPSVFPLAPCSRSTSESTAALGCLVKDYFPEPVTVSWNSGALTSGVHTFPAVLQSSGLYSLSSVVTVPSSSLGTKTYTCNVDHKPSNTKVDKRVESKYGPPCPPCPAPEFEGGPSVFLFPPKPKDTLMISRTPEVTCVVVDVSQEDPEVQFNWYVDGVEVHNAKTKPREEQFNSTYRVVSVLTVLHQDWLNGKEYKCKVSNKGLASSIEKTISKAKGQPREPQVYTLPPCQEEMTKNQVSLWCLVKGFYPSDIAVEWESNGQPENNYKTTPPVLDSDGSFFLYSKLTVDKSRWQEGNVFSCSVMHEALHNHYTQKSLSLSLGK
notes: Human IgG4 knob-into-hole Fc with Ser228Pro, Leu235Glu, Pro329Ala; also called GPC3×CD3 κλ bispecific antibody

Assays:
[1] = biological target: T1, human GPC3 on cells (CHO-human GPC3 stably transfected cells; HepG2 tumor cells) (human, UniProt P51654 25-554); assay: flow cytometry on HepG2 cells
T1 construct: whole, on cells; also called Human GPC3-CHO
Experimental: (§1) CHO-human GPC3, CHO-Cynomolgus monkey GPC3 stably transfected cells or human hepatocellular carcinoma HepG2 tumor cells in logarithmic growth phase were taken. After blocking, the cells were adjusted to 5×10⁵ cells/ml, and 100 μl/well cell suspension was added to 96-well U-shaped plate and centrifuged at 300 g for 5 min. The supernatant was discarded, 100 μL of gradient diluted antibody (with a starting concentration of 1800 nM, 3-fold dilution, 10 gradients) was added to each well, and incubated at 4° C. for 60 min. 50 μL/well Alexa Fluro647 labeled goat anti-human IgG Fc (1:300 dilution) were added to the secondary antibody, incubated on ice for 20 min, added with 50 μL/well PI solution (1:300) after washing once, incubated for 5 min, and flow cytometer was used to make detection.

[2] = biological target: T2, human CD3 on T cells (Jurkat cells; human peripheral blood CD4+ and CD8+ T-cells) (human, UniProt P07766 23-207); assay: flow cytometry on Jurkat cells
T2 construct: whole, on cells; also called CD4T; CD4 + T
Experimental: The cells were adjusted to 5×10^5 cells/mL with 4% calf serum, 100 μL/well was added to 96-well U-plate, 300 g was centrifuged to removed the supernatant, 100 μL/well of gradient diluted antibody (initial concentration: 1800 nM, 3-fold dilution, 10 gradients) was added and incubated at 4° C. for 60 min. 50 μL/well Alexa Fluro647-labeled goat anti-human IgG Fc (1:300 dilution) was added to the secondary antibody and incubated on ice for 20 min. 50 μL/well PI was added after washing once, incubated for 5 min, and detected with flow cytometer (BD C6).

[3] = biological target: T2, human CD3 on T cells (Jurkat cells; …); assay: flow cytometry on peripheral blood CD4+ T-cells
Experimental: (§2) Fresh human or cynomolgus monkey peripheral blood was taken and PBMC was isolated by Ficoll. Paque Plus (GE, 17-1440-03). PBMC was adjusted to 5×10⁵ cells/mL with 4% calf serum (Hyclone, SH30626.06), 100 μL/well was added to a 96-well U-plate, the supernatant was centrifuged off and 100 μL of gradient diluted antibody (with starting concentration of 1800 nM, 3-fold dilution, 10 gradients) was added to each well and incubated for 60 min at 4° C. 50 μL/well Alexa Fluro647 labeled goat anti-human IgG Fc (1:300 dilution) was added to secondary antibody, with ice bath for 20 min. 50 μL/well PI was added after washing once and incubated for 5 min, and flow cytometer (BD Celesta) is used to make detection.

[4] = biological target: T2, human CD3 on T cells (Jurkat cells; …); assay: flow cytometry on peripheral blood CD8+ T-cells
Experimental: as §2

[5] = biological target: T1, human GPC3 on cells (CHO-human GPC3 …); assay: flow cytometry on CHO-human GPC3 stably transfected cells
Experimental: as §1

[6] = biological target: T3, cynomolgus monkey GPC3 on CHO stably transfected cells (cynomolgus monkey, UniProt A0A2K5VK50 24-553); assay: flow cytometry on CHO-cynomolgus monkey GPC3 stably transfected cells
T3 construct: whole, on cells; also called Cynomolgus monkey GPC3-CHO; CHO-Cynomolgus monkey GPC3
Experimental: as §1

Binder	EC50 [1] [nM]	EC50 [2] [nM]	EC50 [3] [nM]	EC50 [4] [nM]	EC50 [5] [nM]	EC50 [6] [nM]
B1	2.1	36	65	65	2.8	3
B2	2.5	26	56	69	2.9	3
